Our source for the protein stability index values is the supplement of paper PMC10567573.

B1: TRIM55 (parent)
chain: ICPICLEMFTKPVVILPCQHNLCR
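Note: lentivirally expressed fusions sorted by FACS into six bins by GFP to DsRed ratio, PSI derived from sequencing read proportions per bin multiplied by bin number.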

In the data set the parent is B1. Nature of the data set: protein stability index of a GFP-peptide fusion (GPS, HEK-293T) (PSI 1-6); higher = more stable. To be noted: c terminus: a fixed tail appended.
For ICPICLEMFTKPVVILVCQHNLCR, the protein stability index amounted to 2.33. Consider ICPICLEMFTKPVVILCCQHNLCR, for which the protein stability index worked out at 1.8. The figure for ICPICLEMFTKPVVILMCQHNLCR is 1.7. The figure for ICPICLEMFTKPVVILICQHNLCR is 2.18; for ICPICLEMFTKPVVILDCQHNLCR it is 2.27; for ICPICLEMFTKPVVILKCQHNLCR it is 1.93.

Regarding ICPICLEMFTKPVVILQCQHNLCR, the protein stability index amounted to 2. The figure for ICPICLEMFTKPVVILSCQHNLCR is 2.91. The figure for ICPICLEMFTKPVVILFCQHNLCR is 2.53; for ICPICLEMFTKPVVILNCQHNLCR it is 1.86. The same measure for ICPICLEMFTKPVVILTCQHNLCR: 2.32; for ICPICLEMFTKPVVILLCQHNLCR: 2.44; for ICPICLEMFTKPVVILECQHNLCR: 2.62. ICPICLEMFTKPVVILWCQHNLCR: the protein stability index worked out at 2.31.

In the case of ICPICLEMFTKPVVILACQHNLCR, the protein stability index is 1.97. The figure for ICPICLEMFTKPVVILHCQHNLCR is 2.35; for ICPICLEMFTKPVVILYCQHNLCR it is 1.99. The same measure for ICPICLEMFTKPVVILRCQHNLCR: 2.17; for ICPICLEMFTKPVVILGCQHNLCR: 1.83; for ICPICLEMFTKPVVILPCQVNLCR: 1.34. ICPICLEMFTKPVVILPCQQNLCR: the protein stability index stood at 2.2. The same measure for ICPICLEMFTKPVVILPCQFNLCR: 2.77. ICPICLEMFTKPVVILPCQMNLCR: the protein stability index was 1.54. The same measure for ICPICLEMFTKPVVILPCQSNLCR: 2.12. The figure for ICPICLEMFTKPVVILPCQDNLCR is 2.14; for ICPICLEMFTKPVVILPCQPNLCR it is 2.23; for ICPICLEMFTKPVVILPCQCNLCR it is 2.23.

For the variant ICPICLEMFTKPVVILPCQENLCR, the protein stability index turned out to be 1.68.

As for ICPICLEMFTKPVVILPCQTNLCR, the protein stability index was found to be 1.54. The figure for ICPICLEMFTKPVVILPCQNNLCR is 1.88; for ICPICLEMFTKPVVILPCQKNLCR it is 1.87; for ICPICLEMFTKPVVILPCQINLCR it is 1.45. The figure for ICPICLEMFTKPVVILPCQGNLCR is 2.08; for ICPICLEMFTKPVVILPCQANLCR it is 2.22. The same measure for ICPICLEMFTKPVVILPCQLNLCR: 1.91.

Consider ICPICLEMFTKPVVILPCQRNLCR, for which the protein stability index came to 1.45. For ICPICLEMFTKPVVYLPCQHNLCR, the protein stability index worked out at 2.02. The figure for ICPICLEMFTKPVVELPCQHNLCR is 3.32; for ICPICLEMFTKPVVFLPCQHNLCR it is 2.32; for ICPICLEMFTKPVVNLPCQHNLCR it is 2.5. Take ICPICLEMFTKPVVQLPCQHNLCR: the protein stability index was determined as 3.22. The same measure for ICPICLEMFTKPVVGLPCQHNLCR: 2.53; for ICPICLEMFTKPVVLLPCQHNLCR: 2.6. The figure for ICPICLEMFTKPVVALPCQHNLCR is 2.84; for ICPICLEMFTKPVVTLPCQHNLCR it is 2.88; for ICPICLEMFTKPVVRLPCQHNLCR it is 2.18. The same measure for ICPICLEMFTKPVVDLPCQHNLCR: 2.81; for ICPICLEMFTKPVVPLPCQHNLCR: 2.69; for ICPICLEMFTKPVVHLPCQHNLCR: 2.38.

In the case of ICPICLEMFTKPVVCLPCQHNLCR, the protein stability index is 2.71.

ICPICLEMFTKPVVMLPCQHNLCR: the protein stability index was 2. The same measure for ICPICLEMFTKPVVVLPCQHNLCR: 2.14; for ICPICLEMFTKPVVSLPCQHNLCR: 2.74.

As to ICPICLEMFTKPVVWLPCQHNLCR, the protein stability index is 1.85. The same measure for ICPICLEMFTKPVVKLPCQHNLCR: 2.09; for ICPICLEMFTKPVVIAPCQHNLCR: 2.56; for ICPICLEMFTKPVVIKPCQHNLCR: 2.58. On to ICPICLEMFTKPVVIHPCQHNLCR, for which the protein stability index is 2.86. The figure for ICPICLEMFTKPVVIYPCQHNLCR is 2.39; for ICPICLEMFTKPVVIVPCQHNLCR it is 2.68; for ICPICLEMFTKPVVITPCQHNLCR it is 2.77.

On to ICPICLEMFTKPVVIDPCQHNLCR, for which the protein stability index came out at 2.61.

In the case of ICPICLEMFTKPVVINPCQHNLCR, the protein stability index was 2.67. For the variant ICPICLEMFTKPVVIEPCQHNLCR, the protein stability index came out at 2.35. The same measure for ICPICLEMFTKPVVIWPCQHNLCR: 2.38. Regarding ICPICLEMFTKPVVIMPCQHNLCR, the protein stability index is 2.38. For the variant ICPICLEMFTKPVVIIPCQHNLCR, the protein stability index came to 2.05.

Take ICPICLEMFTKPVVICPCQHNLCR: the protein stability index came out at 2.4. In the case of ICPICLEMFTKPVVIGPCQHNLCR, the protein stability index stood at 3.03. The figure for ICPICLEMFTKPVVISPCQHNLCR is 2.4; for ICPICLEMFTKPVVIQPCQHNLCR it is 2.62. The same measure for ICPICLEMFTKPVVIFPCQHNLCR: 2.12; for ICPICLEMFTKPVVIRPCQHNLCR: 2.24. On to ICPICLEMFTKPVVIPPCQHNLCR, for which the protein stability index came to 3.02. On to ICPICLEMFTKPVVILPCHHNLCR, for which the protein stability index is 2.09. The figure for ICPICLEMFTKPVVILPCFHNLCR is 2.05; for ICPICLEMFTKPVVILPCSHNLCR it is 2.23. For the variant ICPICLEMFTKPVVILPCTHNLCR, the protein stability index came to 1.98. Turning to ICPICLEMFTKPVVILPCMHNLCR, the protein stability index was found to be 2.15.

Turning to ICPICLEMFTKPVVILPCDHNLCR, the protein stability index was found to be 2.54. As for ICPICLEMFTKPVVILPCPHNLCR, the protein stability index stood at 2.12.

In the case of ICPICLEMFTKPVVILPCCHNLCR, the protein stability index was determined as 1.98.

On to ICPICLEMFTKPVVILPCLHNLCR, for which the protein stability index stood at 1.84. The figure for ICPICLEMFTKPVVILPCAHNLCR is 2.05; for ICPICLEMFTKPVVILPCRHNLCR it is 2.25. The figure for ICPICLEMFTKPVVILPCIHNLCR is 2.68; for ICPICLEMFTKPVVILPCVHNLCR it is 2.18. The same measure for ICPICLEMFTKPVVILPCKHNLCR: 2.01. For the variant ICPICLEMFTKPVVILPCEHNLCR, the protein stability index worked out at 2.28. The same measure for ICPICLEMFTKPVVILPCWHNLCR: 1.61; for ICPICLEMFTKPVVILPCYHNLCR: 2.31. The figure for ICPICLEMFTKPVVILPCGHNLCR is 2.85; for ICPICLEMFTKPVVILPCNHNLCR it is 2.34; for ICPICLEMFTKPVEILPCQHNLCR it is 3.02.
